Assay results reported in patent publication US20230143604A1, “QW DOSING OF GIP RECEPTOR AGONIST PEPTIDE COMPOUNDS AND USES THEREOF” (TAKEDA PHARMACEUTICAL COMPANY LIMITED, priority 2020, published 2023).
Starred links: 1 amine or outer side, 2 acyl side, 3 side chain; linkers in the order of their positions; H or OH if unused. Non-standard residues stand in square brackets, D forms with d. Groups on a side chain read outwards from the residue. No end group written: not given here. *: point of attachment. C18 diacid = O=C(O)CCCCCCCCCCCCCCCCC(=O)*; C17 diacid = O=C(O)CCCCCCCCCCCCCCCC(=O)*; γGlu = O=C(O)[C@H](CCC(=O)[*:2])N[*:1]; NMeY = CN[C@@H](Cc1ccc(O)cc1)C(=O)O; AEEA = NCCOCCOCC(=O)O; Aib = CC(C)(N)C(=O)O

Assays:
[1] = target: T1, full-length human GIPR with an N-terminal FLAG tag (human, UniProt P48546 22-466); assay: cell-based or functional assay
T1 sequence (looked up): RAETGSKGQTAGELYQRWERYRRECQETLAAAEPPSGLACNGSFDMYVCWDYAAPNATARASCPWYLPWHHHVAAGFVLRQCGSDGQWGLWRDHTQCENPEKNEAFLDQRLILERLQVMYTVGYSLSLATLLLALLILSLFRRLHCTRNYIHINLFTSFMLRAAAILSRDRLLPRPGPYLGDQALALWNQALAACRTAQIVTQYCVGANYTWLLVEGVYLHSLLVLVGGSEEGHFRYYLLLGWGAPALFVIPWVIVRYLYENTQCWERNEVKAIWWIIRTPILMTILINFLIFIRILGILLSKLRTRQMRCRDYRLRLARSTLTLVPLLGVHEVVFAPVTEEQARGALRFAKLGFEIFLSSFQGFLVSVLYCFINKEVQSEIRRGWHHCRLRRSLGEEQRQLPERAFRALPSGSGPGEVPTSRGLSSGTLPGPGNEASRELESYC

[2] = target: full-length human GLP-1R with an N-terminal FLAG tag (human, UniProt P43220 24-463); assay: cell-based or functional assay

Binder	Human GIPR cAMP EC50, HEK293T [1]	Human GLP1R cAMP EC50, HEK293T [2]
H-Y[Aib]EGTFISDYSIALDK[Aib]AQQK([AEEA-AEEA-γGlu-γGlu-C17 diacid])FVEWLLAQRG-OH (SMILES CC[C@H](C)[C@H](NC(=O)[C@H](CO)NC(=O)[C@H](Cc1ccc(O)cc1)NC(=O)[C@H](CC(=O)O)NC(=O)[C@H](CO)NC(=O)[C@@H](NC(=O)[C@H](Cc1ccccc1)NC(=O)[C@@H](NC(=O)CNC(=O)[C@H](CCC(=O)O)NC(=O)C(C)(C)NC(=O)[C@@H](N)Cc1ccc(O)cc1)[C@@H](C)O)[C@@H](C)CC)C(=O)N[C@@H](C)C(=O)N[C@@H](CC(C)C)C(=O)N[C@@H](CC(=O)O)C(=O)N[C@@H](CCCCN)C(=O)NC(C)(C)C(=O)N[C@@H](C)C(=O)N[C@@H](CCC(N)=O)C(=O)N[C@@H](CCC(N)=O)C(=O)N[C@@H](CCCCNC(=O)COCCOCCNC(=O)COCCOCCNC(=O)CC[C@H](NC(=O)CC[C@H](NC(=O)CCCCCCCCCCCCCCCC(=O)O)C(=O)O)C(=O)O)C(=O)N[C@@H](Cc1ccccc1)C(=O)N[C@H](C(=O)N[C@@H](CCC(=O)O)C(=O)N[C@@H](Cc1c[nH]c2ccccc12)C(=O)N[C@@H](CC(C)C)C(=O)N[C@@H](CC(C)C)C(=O)N[C@@H](C)C(=O)N[C@@H](CCC(N)=O)C(=O)N[C@@H](CCCNC(=N)N)C(=O)NCC(=O)O)C(C)C) [Compound No. 130]	0.0003 nM	95.5 nM
H-Y[Aib]EGTFISDYSIALDK[Aib]AQAK([AEEA-AEEA-γGlu-γGlu-C17 diacid])FVEWLLAQRG-OH (SMILES CC[C@H](C)[C@H](NC(=O)[C@H](CO)NC(=O)[C@H](Cc1ccc(O)cc1)NC(=O)[C@H](CC(=O)O)NC(=O)[C@H](CO)NC(=O)[C@@H](NC(=O)[C@H](Cc1ccccc1)NC(=O)[C@@H](NC(=O)CNC(=O)[C@H](CCC(=O)O)NC(=O)C(C)(C)NC(=O)[C@@H](N)Cc1ccc(O)cc1)[C@@H](C)O)[C@@H](C)CC)C(=O)N[C@@H](C)C(=O)N[C@@H](CC(C)C)C(=O)N[C@@H](CC(=O)O)C(=O)N[C@@H](CCCCN)C(=O)NC(C)(C)C(=O)N[C@@H](C)C(=O)N[C@@H](CCC(N)=O)C(=O)N[C@@H](C)C(=O)N[C@@H](CCCCNC(=O)COCCOCCNC(=O)COCCOCCNC(=O)CC[C@H](NC(=O)CC[C@H](NC(=O)CCCCCCCCCCCCCCCC(=O)O)C(=O)O)C(=O)O)C(=O)N[C@@H](Cc1ccccc1)C(=O)N[C@H](C(=O)N[C@@H](CCC(=O)O)C(=O)N[C@@H](Cc1c[nH]c2ccccc12)C(=O)N[C@@H](CC(C)C)C(=O)N[C@@H](CC(C)C)C(=O)N[C@@H](C)C(=O)N[C@@H](CCC(N)=O)C(=O)N[C@@H](CCCNC(=N)N)C(=O)NCC(=O)O)C(C)C) [Compound No. 131]	0.0004 nM	151 nM
H-Y[Aib]EGTFISDYSIALDKIAQ[Aib]K([AEEA-AEEA-γGlu-γGlu-C17 diacid])FVEWLLAQRG-OH [Compound No. 132]	0.0009 nM	66.1 nM
H-Y[Aib]EGTFISDYSIALDKAAQ[Aib]K([AEEA-AEEA-γGlu-γGlu-C17 diacid])FVEWLLAQRG-OH [Compound No. 133]	0.0012 nM	58.9 nM
H-Y[Aib]EGTFISDYSIALDKIAQQK([AEEA-AEEA-γGlu-γGlu-C17 diacid])FVEWLLAQRPSSGAPPPS-OH [Compound No. 134]	0.0006 nM	170 nM
H-Y[Aib]EGTFISDYSIALDKIAQRK([AEEA-AEEA-γGlu-γGlu-C17 diacid])FVEWLLAQRPSSGAPPPS-OH [Compound No. 135]	0.0007 nM	8.32 nM
[NMeY][Aib]EGTFISDYSIALDR[Aib]K([Gly-Gly-Pro-Ala-Pro-Ala-Pro-γGlu-C18 diacid])Q[Aib]DFVNWLLAQSPG-OH (N-terminus assumed; SMILES CC[C@H](C)[C@H](NC(=O)[C@H](CO)NC(=O)[C@H](Cc1ccc(O)cc1)NC(=O)[C@H](CC(=O)O)NC(=O)[C@H](CO)NC(=O)[C@@H](NC(=O)[C@H](Cc1ccccc1)NC(=O)[C@@H](NC(=O)CNC(=O)[C@H](CCC(=O)O)NC(=O)C(C)(C)NC(=O)[C@H](Cc1ccc(O)cc1)NC)[C@@H](C)O)[C@@H](C)CC)C(=O)N[C@@H](C)C(=O)N[C@@H](CC(C)C)C(=O)N[C@@H](CC(=O)O)C(=O)N[C@@H](CCCNC(=N)N)C(=O)NC(C)(C)C(=O)N[C@@H](CCCCNC(=O)CNC(=O)CNC(=O)[C@@H]1CCCN1C(=O)[C@H](C)NC(=O)[C@@H]1CCCN1C(=O)[C@H](C)NC(=O)[C@@H]1CCCN1C(=O)CC[C@H](NC(=O)CCCCCCCCCCCCCCCCC(=O)O)C(=O)O)C(=O)N[C@@H](CCC(N)=O)C(=O)NC(C)(C)C(=O)N[C@@H](CC(=O)O)C(=O)N[C@@H](Cc1ccccc1)C(=O)N[C@H](C(=O)N[C@@H](CC(N)=O)C(=O)N[C@@H](Cc1c[nH]c2ccccc12)C(=O)N[C@@H](CC(C)C)C(=O)N[C@@H](CC(C)C)C(=O)N[C@@H](C)C(=O)N[C@@H](CCC(N)=O)C(=O)N[C@@H](CO)C(=O)N1CCC[C@H]1C(=O)NCC(=O)O)C(C)C) [Compound No. 136]	0.0007 nM	63.1 nM
YXEGTFISDYSIAXDRXAQXNFVNWLLAQSPSSGAPPPS (N-terminus H; Aib at 2,17,20; Lys(G5-C18 diacid) at 14; C-terminal OH) [Compound No. 138]	0.0008 nM	2.04 nM
YXEGTFISDYSIXXDRXAQXDFVEWLLAQRG (N-terminus H; Aib at 2,13,17,20; Lys(G5-C18 diacid) at 14; C-terminal OH) [Compound No. 139]	0.0015 nM	8.91 nM
H-Y[Aib]EGTFISDYSIALDR[Aib]AQ[Aib]K([AEEA-AEEA-γGlu-γGlu-C17 diacid])FVNWLLAQRG-OH (SMILES CC[C@H](C)[C@H](NC(=O)[C@H](CO)NC(=O)[C@H](Cc1ccc(O)cc1)NC(=O)[C@H](CC(=O)O)NC(=O)[C@H](CO)NC(=O)[C@@H](NC(=O)[C@H](Cc1ccccc1)NC(=O)[C@@H](NC(=O)CNC(=O)[C@H](CCC(=O)O)NC(=O)C(C)(C)NC(=O)[C@@H](N)Cc1ccc(O)cc1)[C@@H](C)O)[C@@H](C)CC)C(=O)N[C@@H](C)C(=O)N[C@@H](CC(C)C)C(=O)N[C@@H](CC(=O)O)C(=O)N[C@@H](CCCNC(=N)N)C(=O)NC(C)(C)C(=O)N[C@@H](C)C(=O)N[C@@H](CCC(N)=O)C(=O)NC(C)(C)C(=O)N[C@@H](CCCCNC(=O)COCCOCCNC(=O)COCCOCCNC(=O)CC[C@H](NC(=O)CC[C@H](NC(=O)CCCCCCCCCCCCCCCC(=O)O)C(=O)O)C(=O)O)C(=O)N[C@@H](Cc1ccccc1)C(=O)N[C@H](C(=O)N[C@@H](CC(N)=O)C(=O)N[C@@H](Cc1c[nH]c2ccccc12)C(=O)N[C@@H](CC(C)C)C(=O)N[C@@H](CC(C)C)C(=O)N[C@@H](C)C(=O)N[C@@H](CCC(N)=O)C(=O)N[C@@H](CCCNC(=N)N)C(=O)NCC(=O)O)C(C)C) [Compound No. 140]	0.0007 nM	3.98 nM
Y[Aib]EGTFISDYSI[Aib]LDR[Aib]AQ[Aib]K([AEEA-AEEA-γGlu-γGlu-C18 diacid])FVNWLLAQRG-OH (not fully specified (N-terminus)) [Compound No. 141]	0.0005 nM	5.25 nM
Y[Aib]EGTFISDYSIALDKIAQQK([AEEA-AEEA-γGlu-γGlu-C17 diacid])FVEWLLAQRG-OH [Compound No. 142]	0.0004 nM	158 nM
Y[Aib]EGTFISDYSIALDKIAQRK([AEEA-AEEA-γGlu-γGlu-C17 diacid])FVEWLLAQRG-OH [Compound No. 143]	0.0004 nM	4.9 nM
YXEGTFISDYSIAXDRXAQXDFVEWLLAQRG (N-terminus H; Aib at 2,17,20; Lys(G5-C18 diacid) at 14; C-terminal OH) [Compound No. 144]	0.0009 nM	15.1 nM
YXEGTFISDYSIXXDRAAQXDFVEWLLAQRG (N-terminus H; Aib at 2,13,20; Lys(G5-C18 diacid) at 14; C-terminal OH) [Compound No. 145]	0.0018 nM	9.33 nM
YXEGTFISDYSIXXDRXAQADFVEWLLAQRG (N-terminus H; Aib at 2,13,17; Lys(G5-C18 diacid) at 14; C-terminal OH) [Compound No. 146]	0.0008 nM	7.08 nM
YXEGTFISDYSIXXDRXAQRDFVEWLLAQRG (N-terminus H; Aib at 2,13,17; Lys(G5-C18 diacid) at 14; C-terminal OH) [Compound No. 147]	0.0008 nM	1.66 nM
YXEGTFISDYSIXXDRAAQADFVEWLLAQRG (N-terminus H; Aib at 2,13; Lys(G5-C18 diacid) at 14; C-terminal OH) [Compound No. 148]	0.0004 nM	8.71 nM
YXEGTFISDYSIAXDRXAQADFVEWLLAQRG (N-terminus H; Aib at 2,17; Lys(G5-C18 diacid) at 14; C-terminal OH) [Compound No. 149]	0.0007 nM	15.8 nM
[NMeY][Aib]EGTFISDYSI[Aib]K([AEEA-AEEA-γGlu-γGlu-C17 diacid])DR[Aib]AQ[Aib]NFVNWLLAQRPSSGAPPPS-NH2 [Compound No. 14]	0.0003 nM	172 nM
